We go through three molecules from US12544447B2, “Nuclease-dendrimer formulations for Covid-19 and broad-spectrum antiviral therapy and prophylaxis” (priority 2020, dated 2026).

Like-named read-outs stand apart in the source and are kept apart here.

A short description of data set [1]: Aggregate net charge estimated from published data. The format is physicochemical. Particulars: calculated estimates from published data. The text has this:
To determine the resulting aggregate net charge of each mixture (mildly or highly) cationized RNase A may be fractionated according to net charge by cation-exchange chromatography. Based upon calculated estimates from published data, the aggregate net charge of the mildly cationized RNase obtained from the above methodology is approximately +11 to +13 and the aggregate net charge of the highly cationized RNase obtained from the above methodology is approximately +21 to +23.

In a further data set the test system is HEK293T cells. The data set is described as follows: Cytotoxicity of cationized RNase using HEK293T cells. The format is cell-based, human. The protocol:
In this example, initially, the cytotoxicity of cationized RNase using HEK293T cells is tested. Next, the highest dose with more than 80% surviving cells is selected for an anti-viral test of a co-treatment of RNase/DNase complexed with a highly cationic molecule dendrimer (the generation 2 poly PAMAM dendrimer described above) to enhance the efficacy of ribonucleases as anti-virus (HCoV-NL63/OC43) agents.
In this set of exemplar experiments, the same methodology, including the cellular compositions, viral samples, and RNase/DNase formulations from Example 1 are utilized in the various experimental combinations shown in FIG. 21.

The subject of the next data set is HCoV-OC43 virus. The format is cell-based. Particulars: OC43, HEK293T.
A further data set has as its system OC43 virus. The experiment in a line: RT-qPCR of cell culture medium for OC43 virus. Particulars: RNase 10 μg/mL, dendrimer 10 μM where present.
The next data set relates to HIV. Particulars: published research; cited from earlier work.
For data set [2] the following is noted: cited from earlier work.

B1: mildly cationized RNase: bovine pancreatic RNase A carboxyl groups amidated with ethylenediamine using 10 mg EDC; mixture of diversely modified proteins (protein, UniProt P61823 27-150, looked up)
Ribonuclease pancreatic: KETAAAKFERQHMDSSTSAASSSNYCNQMMKSRNLTKDRCKPVNTFVHESLADVQAVCSQKNVACKNGQTNCYQSYSTMSITDCRETGSSKYPNCAYKTTQANKHIIVACEGNPYVPVHFDASV
modifications: carboxyls amidated with ethylenediamine, mildly cationized
notes: bovine pancreatic RNase A carboxyl groups amidated with ethylenediamine using 10 mg EDC; mixture of diversely modified proteins
For the molecule B1, in data set [1], the aggregate net charge result was “+11 to +13”. In the data set with HEK293T cells (FIG. 22), the “concentration with survival of 80% of the control cells” value was 10000 ng/mL. Also, the “effective reduction compared to the control group (TCID50)” value with HCoV-OC43 virus (7.5 μg/ml) turned out to be 6.8 ×. Further, the “virus detection in medium by RT-qPCR after 3 days” value with OC43 virus (3 days) is “detected”. Besides, in the data set on OC43 virus (5 days), the “virus detection in medium by RT-qPCR after 5 days” value is “detected”.

B2: highly cationized RNase: bovine pancreatic RNase A carboxyl groups amidated with ethylenediamine using EDC 80+80+40 mg; mixture of diversely modified proteins (protein, UniProt P61823 27-150, looked up)
Ribonuclease pancreatic: KETAAAKFERQHMDSSTSAASSSNYCNQMMKSRNLTKDRCKPVNTFVHESLADVQAVCSQKNVACKNGQTNCYQSYSTMSITDCRETGSSKYPNCAYKTTQANKHIIVACEGNPYVPVHFDASV
modifications: carboxyls amidated with ethylenediamine, highly cationized
notes: bovine pancreatic RNase A carboxyl groups amidated with ethylenediamine using EDC 80+80+40 mg; mixture of diversely modified proteins
Turning to B2, in data set [1], the aggregate net charge entry is given as “+21 to +23”. Besides, in the data set with HEK293T cells (interpolation of experimental results), the “concentration with 80% survival of control cells, interpolated” value is 200 to 500 ng/mL. For the same molecule, in the data set on HCoV-OC43 virus (highly cationized formulation), the “effective reduction compared to the control group (TCID50)” value is recorded as “negligible”.

B3: ranpiRNase: ribonuclease enzyme found in the oocytes of the northern leopard frog (rana pipiens) (protein, UniProt P22069 1-104, looked up)
Protein P-30: QDWLTFQKKHITNTRDVDCDNIMSTNLFHCKDKNTFIYSRPEPVKAICKGIIASKNVLTTSEFYLSDCNVTSRPCKYKLKKSTNKFCVTCENQAPVHFVGVGSC
As to B3, the “antiviral effect on HIV” value in the data set on HIV is reported as “shown antiviral activity against HIV”. Moreover, the “maximum tolerated dose (MTD)” value in data set [2] (intravenously weekly, patients with malignant mesothelioma) was 960 mg/m2; in data set [2] (of skin area, phase one clinical study) it was 960 μg/m^2.
